# How the values were obtained:
# [1] = biological target: Human CXCR7 (human) (UniProt P25106); experiment: [125I]-CXCL12 displacement on NIH3T3-hCXCR7 cells, relative to cold SDF-1
# [2] = biological target: Human CXCR7 (human) (UniProt P25106); experiment: cell-based or functional assay
# [3] = biological target: Human CXCR7 (human) (UniProt P25106); experiment: competition FACS with 4 nM biotinylated SDF-1 on HEK-hCXCR7 cells
# [4] = biological target: Human CXCR7 (human) (UniProt P25106); experiment: [125I]-CXCL12 displacement on NIH3T3-hCXCR7 cells
# Chain of Human CXCR7 (human) (P25106 whole entry): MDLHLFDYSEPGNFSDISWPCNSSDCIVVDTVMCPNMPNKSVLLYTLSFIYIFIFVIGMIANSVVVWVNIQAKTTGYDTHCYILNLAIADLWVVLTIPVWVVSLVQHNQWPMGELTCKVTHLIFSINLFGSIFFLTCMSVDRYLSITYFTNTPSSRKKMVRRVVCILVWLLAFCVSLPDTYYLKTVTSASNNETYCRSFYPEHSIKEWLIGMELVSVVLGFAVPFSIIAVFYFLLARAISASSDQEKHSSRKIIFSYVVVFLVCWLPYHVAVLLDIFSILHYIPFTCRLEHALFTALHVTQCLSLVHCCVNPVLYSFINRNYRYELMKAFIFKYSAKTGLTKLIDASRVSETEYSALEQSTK
substance,measurement,setting,value
Mab 8F11 (Biolegend) (antibody),Average SDF-1 displacement (%),[1],73%
same,β-arrestin recruitment in absence of HSA [IC50],[2],12.9
same,β-arrestin recruitment in presence of HSA [IC50],[2],34.8
same,competition relative to unlabelled SDF-1 (%),[3],> 95%
same,Ki,[4],5.9 nM

# Reference: patent US20140178390A1
